Experimental findings from IntAct's records for PubMed 16098514 are described below.

B1: GTPase RhebL1 (Homo sapiens), Q8TAI7 (parent)
chain: MPLVRYRKVVILGYRCVGKTSLAHQFVEGEFSEGYDPTVENTYSKIVTLGKDEFHLHLVDTAGQDEYSILPYSFIIGVHGYVLVYSVTSLHSFQVIESLYQKLHEGHGKTRVPVVLVGNKADLSPEREVQAVEGKKLAESWGATFMESSARENQLTQGIFTKVIQEIARVENSYGQERRCHLM

In this assay the parent is B1. The following applies: with mtor_human MTOR.
Regarding N41A, the “effect of a mutation on the interaction” value was “disrupting interaction”.
